Target: SARS-CoV-2 spike heptad repeat 1 (HR1) with C-terminal poly-his tag (SARS-CoV-2)
Assay: SPR

SARS-CoV-2 spike heptad repeat 2 (HR2) peptide
Kd: 2.24 nM

Source: article doi:10.1101/2021.10.28.465226
